Test results taken from patent US9018171B2, “Uses of an immunomodulatory protein (GMI) from Ganoderma microsporum” (Mycomagic Biotechnology Co., Ltd., priority 2010, dated 2015).
Like-named read-outs stand apart in the source and are kept apart here.

Key:
K-562 = experiment: NCI60 in vitro screening, Leukemia; assay type: cell-based
NCI-H522 = assay type: cell-based
SW-620 = experiment: NCI60 in vitro screening, Colon Cancer; assay type: cell-based
A498 = experiment: NCI60 in vitro screening, Renal Cancer; assay type: cell-based
NCI-H226 = assay type: cell-based
SR = experiment: NCI60 in vitro screening, Leukemia; assay type: cell-based
SK-MEL-2 = experiment: NCI60 in vitro screening, Melanoma; assay type: cell-based; settings: SK-MEL-2, one dose
NCI-H460 = assay type: cell-based
IGROV1 = experiment: NCI60 in vitro screening, Ovarian Cancer; assay type: cell-based

B1: GMI: immunomodulatory protein from Ganoderma microsporum, amino acid sequence SEQ ID NO: 3, manufactured by Mycomagic Biotechnology Co., Ltd. (protein, listed as Ganoderma microsporum)
chain: MSDTALIFTLAWNVKQLAFDYTPNWGRGRPSSFIDTVTFPTVLTDKAYTYRVVVSGKDLGVRPSYAVESDGSQKINFLEYNSGYGIADTNTIQVYVIDPDTGNNFIVAQWN
For B1, the LC50 (BT-549) was 7.24E1, the TGI (BT-549; BT-549) was 2.27E1 and the “Percent Growth” value (BT-549; BT-549, Log10 Concentration 0.1) was 100%. The “Percent Growth” value (BT-549; BT-549, Log10 Concentration 1.1) was 26%, the “Percent Growth” value (BT-549; BT-549, Log10 Concentration 2.1) was −74% and the “Percent Growth” value (BT-549; BT-549, Log10 Concentration −0.9) was 98%. The “Percent Growth” value (BT-549; BT-549, Log10 Concentration −1.9) was 104%, the “Growth Percent” value (BT-549; BT-549, one dose) was −74.30% and the GI50 (BT-549; BT-549, in µg/mL) was 5.89E0. The TGI (K-562; K-562) was over 1.25E2, the “Percent Growth” value (K-562; K-562, Log10 Concentration 0.1) was 101% and the “Percent Growth” value (K-562; K-562, Log10 Concentration 1.1) was 97%. For the same molecule, the “Percent Growth” value (K-562; K-562, Log10 Concentration 2.1) was 90%, the “Percent Growth” value (K-562; K-562, Log10 Concentration −0.9) was 98% and the “Percent Growth” value (K-562; K-562, Log10 Concentration −1.9) was 96%. The “Growth Percent” value (K-562; K-562, one dose) was 125.37%, the TGI (NCI-H522; NCI-H522) was 1.25E2 and the “Percent Growth” value (NCI-H522; NCI-H522, Log10 Concentration 0.1) was 105%. The “Percent Growth” value (NCI-H522; NCI-H522, Log10 Concentration 1.1) was 98%, the “Percent Growth” value (NCI-H522; NCI-H522, Log10 Concentration 2.1) was 53% and the “Percent Growth” value (NCI-H522; NCI-H522, Log10 Concentration −0.9) was 100%. For the same molecule, the “Percent Growth” value (NCI-H522; NCI-H522, Log10 Concentration −1.9) was 95%, the “Growth Percent” value (NCI-H522; NCI-H522, one dose) was 125.90% and the TGI (SW-620; SW-620) was over 1.25E2. The “Percent Growth” value (SW-620; SW-620, Log10 Concentration 0.1) was 102%, the “Percent Growth” value (SW-620; SW-620, Log10 Concentration 1.1) was 95% and the “Percent Growth” value (SW-620; SW-620, Log10 Concentration 2.1) was 53%. For the same molecule, the “Percent Growth” value (SW-620; SW-620, Log10 Concentration −0.9) was 100%, the “Percent Growth” value (SW-620; SW-620, Log10 Concentration −1.9) was 102% and the “Growth Percent” value (SW-620; SW-620, one dose) was 87.57%. For the same molecule, the TGI (A498; A498) was 7.07E1, the “Percent Growth” value (A498; A498, Log10 Concentration 0.1) was 114% and the “Percent Growth” value (A498; A498, Log10 Concentration 1.1) was 108%. For the same molecule, the “Percent Growth” value (A498; A498, Log10 Concentration 2.1) was −35%, the “Percent Growth” value (A498; A498, Log10 Concentration −0.9) was 102% and the “Percent Growth” value (A498; A498, Log10 Concentration −1.9) was 107%. The “Growth Percent” value (A498; A498, one dose) was 98.16%, the GI50 (A498; A498, in µg/mL) was 3.17E1 and the TGI (NCI-H226; NCI-H226) was over 1.25E2. For the same molecule, the “Percent Growth” value (NCI-H226; NCI-H226, Log10 Concentration 0.1) was 101%, the “Percent Growth” value (NCI-H226; NCI-H226, Log10 Concentration 1.1) was 65% and the “Percent Growth” value (NCI-H226; NCI-H226, Log10 Concentration 2.1) was 23%. For the same molecule, the “Percent Growth” value (NCI-H226; NCI-H226, Log10 Concentration −0.9) was 99%, the “Percent Growth” value (NCI-H226; NCI-H226, Log10 Concentration −1.9) was 100% and the “Growth Percent” value (NCI-H226; NCI-H226, one dose) was 83.77%. For the same molecule, the GI50 (NCI-H226; NCI-H226, in µg/mL) was 2.90E1, the TGI (SR) was over 1.25E2 and the “Percent Growth” value (SR; Log10 Concentration 0.1) was 96%. For the same molecule, the “Percent Growth” value (SR; Log10 Concentration 1.1) was 17%, the “Percent Growth” value (SR; Log10 Concentration 2.1) was 1% and the “Percent Growth” value (SR; Log10 Concentration −0.9) was 96%. For the same molecule, the “Percent Growth” value (SR; Log10 Concentration −1.9) was 98%, the GI50 (SR; in µg/mL) was 4.79E0 and the “Growth Percent” value (SR; one dose) was 32.47%. For the same molecule, the “Growth Percent” value (SK-MEL-2) was 105.92%, the TGI (NCI-H460; NCI-H460) was over 1.25E2 and the “Percent Growth” value (NCI-H460; NCI-H460, Log10 Concentration 0.1) was 100%. For the same molecule, the “Percent Growth” value (NCI-H460; NCI-H460, Log10 Concentration 1.1) was 91%, the “Percent Growth” value (NCI-H460; NCI-H460, Log10 Concentration 2.1) was 33% and the “Percent Growth” value (NCI-H460; NCI-H460, Log10 Concentration −0.9) was 104%. For the same molecule, the “Percent Growth” value (NCI-H460; NCI-H460, Log10 Concentration −1.9) was 103%, the “Growth Percent” value (NCI-H460; NCI-H460, one dose) was 86.38% and the GI50 (NCI-H460; NCI-H460, in µg/mL) was 6.47E1. For the same molecule, the TGI (IGROV1; IGROV1) was over 1.25E2, the “Percent Growth” value (IGROV1; IGROV1, Log10 Concentration 0.1) was 117% and the “Percent Growth” value (IGROV1; IGROV1, Log10 Concentration 1.1) was 62%. For the same molecule, the “Percent Growth” value (IGROV1; IGROV1, Log10 Concentration 2.1) was 30%, the “Percent Growth” value (IGROV1; IGROV1, Log10 Concentration −0.9) was 98% and the “Percent Growth” value (IGROV1; IGROV1, Log10 Concentration −1.9) was 103%. For the same molecule, the “Growth Percent” value (IGROV1; IGROV1, one dose) was 30.07% and the GI50 (IGROV1; IGROV1, in µg/mL) was 2.94E1.
